Reference: US20250304621A1, “POLYPEPTIDE FOR SPECIFICALLY BLOCKING BINDING OF ACVR1C TO GREM1 AND USE THEREOF” (The Seventh Affiliated Hospital, Sun Yat-Sen University, priority 2024, published 2025)
“Also recorded” adds a separate entry of the source.

T1: binding of GREM1 to ACVR1C (Homo sapiens, UniProt O60565)
T1 construct: his-tagged full-length GREM1 were purified; His; made in house
T1 sequence (O60565 25-184): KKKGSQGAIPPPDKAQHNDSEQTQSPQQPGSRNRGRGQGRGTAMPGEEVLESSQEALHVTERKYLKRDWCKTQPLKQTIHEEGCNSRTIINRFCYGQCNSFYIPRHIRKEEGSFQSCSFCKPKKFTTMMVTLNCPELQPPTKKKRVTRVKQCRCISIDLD

T2: GREM1 (Homo sapiens (Human), UniProt O60565 25-184, limits assumed)
T2 construct: also called Gremlin1
T2 sequence: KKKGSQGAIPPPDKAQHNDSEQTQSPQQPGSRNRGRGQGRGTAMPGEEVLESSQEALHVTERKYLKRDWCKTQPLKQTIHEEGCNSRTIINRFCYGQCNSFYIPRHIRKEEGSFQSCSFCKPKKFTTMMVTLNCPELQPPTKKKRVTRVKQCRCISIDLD


Key:
[1] = target: T1, binding of GREM1 to ACVR1C; test: Pull-down experiment: Fc-tagged ACVR1C-ECD and his-tagged full-length GREM1 with ACVR1C peptide; conditions: purified Fc-tagged ACVR1C-ECD (AA 1-113) and his-tagged full-length GREM1; FIG. 11b
Description: The Fc-tagged ACVR1C extracellular domain (ACVR1C-ECD, AA 1-113) and his-tagged full-length GREM1 were purified, and ACVR1C peptide (with an amino acid sequence of TECCFTDFCNNITLHLPTA, SEQ ID NO: 7) which blocked the binding of ACVR1C to GREM1 ligand thereof was synthesized (FIG. 11a). The Pull-down experiment was performed.

[2] = system: HCT116-luc cells (colorectal liver metastasis); test: Colorectal liver metastasis model: HCT116-luc cells injected through the spleen, live bioluminescence imaging; assay type: in vivo; conditions: NOG mice, PLV-GREM1 HCT116-luc cells via spleen, 10 mg/kg by tail vein once every 2 days
Description: Grouping: a total of 18 6-week-old NOG mice were taken and randomized into 3 groups 5 days after adaptive feeding: control group (PLV), GREM1 overexpression group (PLV-GREM1) and ACVR1C polypeptide treatment group (PLV-GREM1+ACVR1C peptide), 6/group.
Modeling: HCT116-luc cell suspensions were prepared with cell densities adjusted to 1×10^7 cells/mL. The mice to be treated were taken out and anesthetized by intraperitoneal injection of 2% sodium pentobarbital at a dose of 45 μL/20 g. After about 5 minutes, the mice began to enter a quiet state. White gauze was spread on a mouse board, the mice were placed in left lying position, the abdominal hair of the mice was shaved, and the abdominal side was disinfected from the neck to the groin with alcohol cotton pads. The skin was cut open 1-2 cm below the lower edge of the left costal arch to expose the abdominal wall muscles. The abdominal wall muscles were pulled with pointed forceps to avoid the spleen in the abdominal cavity. The abdominal wall muscles were cut open to expose the internal organs. The pancreas was gently pulled with circular forceps, and the spleen was pulled out. […]

GREM1 = target: T2, GREM1; test: co-IP in HCT116 cells
Text: To further describe the binding sites between GREM1 and ACVR1C, a truncated GREM1 and ACVR1C extracellular domain (ACVR1C-ECD) is constructed.

| binding result (GREM1) | Molecule | inhibition of the binding of GREM1 to ACVR1C (pull-down) [1] | inhibition of liver metastasis of colorectal cancer cells (bioluminescence imaging) ([2]; FIG. 12) | inhibition of liver metastasis of colorectal cancer cells (bioluminescence imaging) ([2]; FIG. 12, listed as polypeptide) |
| --- | --- | --- | --- | --- |
| – | TECCFTDFCNNITLHLPTA [ACVR1C peptide] | competitively inhibited the binding of GREM1 to ACVR1C; also recorded: can interfere or block the binding of GREM1 to ACVR1C | significantly lower than that in a control group | significantly inhibits liver metastasis of colorectal cancer cells; also recorded: significantly inhibit the colorectal cancer metastasis |
| no binding | ELSPGLKCVCLLCDSSNFTCQTEGACWASVMLTNGKEQVIKSCVSLP (receptor) [truncated ACVR1C-ECD lacking amino acids 68-113 (A4)] | – | – | – |
